Test results as given in paper PMC4394230.

Tests used:
[1] = target: DR4-Ig (death receptor 4 / TRAIL-R1, Ig fusion protein) (UniProt O00220)
[2] = target: DR4-Ig (death receptor 4 / TRAIL-R1, Ig fusion protein) (UniProt O00220); remark: listed apart in the source
[3] = target: rhTRAIL-C3 (TRAIL G131R/N199R/K201H mutant) (human) (UniProt P50591); assay: SEC

Chain of UniProt O00220 (O00220 24-239): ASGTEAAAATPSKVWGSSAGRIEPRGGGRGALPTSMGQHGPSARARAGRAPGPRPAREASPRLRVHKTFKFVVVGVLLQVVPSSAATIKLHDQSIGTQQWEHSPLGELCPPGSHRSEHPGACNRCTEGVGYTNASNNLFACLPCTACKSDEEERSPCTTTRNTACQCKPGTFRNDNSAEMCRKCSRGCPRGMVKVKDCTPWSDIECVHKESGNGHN

Question: With “rhTRAIL-C3 (TRAIL G131R/N199R/K201H mutant) (from UniProt P50591 1-281) (ligand)” as the substance, how does the ED50 of apoptosis induction (annexin V) in DR4-responsive EM-2 cells, 24 hrs [1] read?
Answer: 3.78 ng/mL

Question: What about the level of cell death in HL-60 cells (100 ng/ml, TMRE, 12 hrs) [2] of the same substance?
Answer: 67%

Question: And the stoichiometry N [3]?
Answer: 3
